Measured values from article PMC4717258, “Sulfoxides, Analogues of L-Methionine and L-Cysteine As Pro-Drugs against Gram-Positive and Gram-Negative Bacteria” (Acta Naturae, 2015).

Key:
[1] = target: T1, C. sporogenes MGL (Clostridium sporogenes, UniProt A0A7X5SZI3); experiment: inhibition of L-Met γ-elimination, NADH-coupled with D-2-hydroxyisocaproate dehydrogenase, Dixon plot; format: biochemical
T1 construct: gene megL; subunit 43 kDa; PLP enzyme
T1 sequence (A0A7X5SZI3 1-400): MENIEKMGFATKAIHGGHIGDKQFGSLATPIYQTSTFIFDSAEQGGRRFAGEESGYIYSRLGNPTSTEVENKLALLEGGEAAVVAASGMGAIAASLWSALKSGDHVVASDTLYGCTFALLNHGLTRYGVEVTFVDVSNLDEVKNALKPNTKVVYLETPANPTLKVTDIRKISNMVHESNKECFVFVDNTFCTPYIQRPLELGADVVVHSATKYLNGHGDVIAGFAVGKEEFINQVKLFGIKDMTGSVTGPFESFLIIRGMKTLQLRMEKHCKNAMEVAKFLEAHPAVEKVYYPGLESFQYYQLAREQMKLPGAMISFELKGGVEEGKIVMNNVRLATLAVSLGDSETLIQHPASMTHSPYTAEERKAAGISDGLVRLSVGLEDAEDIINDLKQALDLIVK
Description: inhibition of L-Met γ-elimination, NADH-coupled with D-2-hydroxyisocaproate dehydrogenase, Dixon plot on C. sporogenes MGL

[2] = target: T1, C. sporogenes MGL; experiment: γ-elimination steady-state kinetics, NADH-coupled with D-2-hydroxyisocaproate dehydrogenase, […] nm; format: biochemical; settings: pH 8.0, 100 mM potassium phosphate, 0.1 mM PLP, 1 mM DTT, 1 mM EDTA, 30 °C
[3] = target: T1, C. sporogenes MGL; experiment: absorption spectrum of holoenzyme, lognormal deconvolution of internal aldimine bands; format: binding; settings: covalent internal aldimine; pH 8.0, 25 °C, working buffer without PLP
[4] = substrate: CC[S+]([O-])CC[C@H](N)C(=O)O; experiment: purified protein; format: biochemical, Clostridium sporogenes; settings: pH 8.0, 100 mM potassium phosphate, 0.1 mM PLP, 1 mM DTT, 1 mM EDTA, 30 °C
[5] = substrate: CSCC[C@H](N)C(=O)O; experiment: purified protein; format: biochemical, Clostridium sporogenes; settings: pH 8.0, 100 mM potassium phosphate, 0.1 mM PLP, 1 mM DTT, 1 mM EDTA, 30 °C
[6] = substrate: CC(=O)OC[C@H](N)C(=O)O; experiment: purified protein; format: biochemical, Clostridium sporogenes; settings: pH 8.0, 100 mM potassium phosphate, 0.1 mM PLP, 1 mM DTT, 1 mM EDTA, 30 °C
[7] = substrate: C[S+]([O-])CC[C@H](N)C(=O)O; experiment: purified protein; format: biochemical, Clostridium sporogenes; settings: pH 8.0, 100 mM potassium phosphate, 0.1 mM PLP, 1 mM DTT, 1 mM EDTA, 30 °C
[8] = substrate: CCSC[C@H](N)C(=O)O; experiment: purified protein; format: biochemical, Clostridium sporogenes; settings: pH 8.0, 100 mM potassium phosphate, 0.1 mM PLP, 1 mM DTT, 1 mM EDTA, 30 °C
[9] = substrate: CC(=O)OCC[C@H](N)C(=O)O; experiment: purified protein; format: biochemical, Clostridium sporogenes; settings: pH 8.0, 100 mM potassium phosphate, 0.1 mM PLP, 1 mM DTT, 1 mM EDTA, 30 °C
[10] = substrate: C=CC[S+]([O-])C[C@H](N)C(=O)O; experiment: purified protein; format: biochemical, Clostridium sporogenes; settings: pH 8.0, 100 mM potassium phosphate, 0.1 mM PLP, 1 mM DTT, 1 mM EDTA, 30 °C
[11] = substrate: CC[S+]([O-])C[C@H](N)C(=O)O; experiment: purified protein; format: biochemical, Clostridium sporogenes; settings: pH 8.0, 100 mM potassium phosphate, 0.1 mM PLP, 1 mM DTT, 1 mM EDTA, 30 °C

CCC[C@H](N)C(=O)O [L-Nva]
Ki [1]: 1.9 mM

CCSCC[C@H](N)C(=O)O [S-Et-L-Hcy]
Km [2]: 240 µM

CC[C@H](N)C(=O)O [L-Abu]
Ki [1]: 2 mM

Cc1ncc(COP(=O)(O)O)c(C=O)c1O [PLP]
absorption spectrum of holoenzyme, lognormal deconvolution of internal aldimine [3]: The ionic form of the internal aldimine and tautomeric equilibrium are almost the same

CCCC[C@H](N)C(=O)O [L-Nle]
Ki [1]: 0.37 mM

C[C@H](N)C(=O)O [L-Ala]
Ki [1]: 1.5 mM

B1: C. sporogenes MGL (Clostridium sporogenes) (protein)
chain: T1 sequence (A0A7X5SZI3 1-400)
notes: subunit 43 kDa; PLP enzyme
Km [4]: 600 µM | kcat [4]: 0.48 s⁻¹ | kcat/Km [4]: 800 M⁻¹ s⁻¹ | Km [5]: 600 µM | kcat [5]: 21.6 s⁻¹ | kcat/Km [5]: 36000 M⁻¹ s⁻¹ | Km [6]: 8010 µM | Km [7]: 11390 µM | kcat [7]: 21.7 s⁻¹ | kcat/Km [7]: 1900 M⁻¹ s⁻¹ | Km [8]: 430 µM | kcat [8]: 6.53 s⁻¹ | kcat/Km [8]: 15200 M⁻¹ s⁻¹ | Km [9]: 3180 µM | kcat [9]: 37.3 s⁻¹ | kcat/Km [9]: 11700 M⁻¹ s⁻¹ | Km [10]: 1430 µM | kcat [10]: 11.4 s⁻¹ | kcat/Km [10]: 7990 M⁻¹ s⁻¹ | Km [11]: 330 µM | kcat [11]: 1.39 s⁻¹ | kcat/Km [11]: 4210 M⁻¹ s⁻¹
